In patent US20100311648A1 (AstraZeneca / MedImmune, published 2010):
Positions of bridges follow the written chain, without caps; N, C: chain ends. Non-standard residues stand in square brackets, D forms with d. dPhe(2-CF3) = N[C@H](Cc1ccccc1C(F)(F)F)C(=O)O; dPhe(3,4-F2) = N[C@H](Cc1ccc(F)c(F)c1)C(=O)O; dPhe(3,5-F2) = N[C@H](Cc1cc(F)cc(F)c1)C(=O)O; dPhe(4-CN) = N#Cc1ccc(C[C@@H](N)C(=O)O)cc1; dPhe(3-Me) = Cc1cccc(C[C@@H](N)C(=O)O)c1; dPhe(2-Cl) = N[C@H](Cc1ccccc1Cl)C(=O)O; dPhe(2-Me) = Cc1ccccc1C[C@@H](N)C(=O)O; dPhe(4-F) = N[C@H](Cc1ccc(F)cc1)C(=O)O; dPhe(2-F) = N[C@H](Cc1ccccc1F)C(=O)O; Orn = NCCC[C@H](N)C(=O)O

Columns and labels:
[1] = biological target: T1, human melanocortin-4 receptor (human, UniProt P32245 1-332); assay: cell-based or functional assay
T1 sequence (P32245 whole entry): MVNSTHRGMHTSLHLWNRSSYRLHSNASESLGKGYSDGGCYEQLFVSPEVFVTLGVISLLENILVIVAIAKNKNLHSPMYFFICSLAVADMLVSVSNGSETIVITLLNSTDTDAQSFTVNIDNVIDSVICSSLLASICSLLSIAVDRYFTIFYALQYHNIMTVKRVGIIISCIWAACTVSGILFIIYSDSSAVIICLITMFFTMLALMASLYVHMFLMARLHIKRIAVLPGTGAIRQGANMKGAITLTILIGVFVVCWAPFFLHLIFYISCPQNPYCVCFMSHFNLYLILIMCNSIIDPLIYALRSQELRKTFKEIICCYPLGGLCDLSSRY

[2] = biological target: T1, human melanocortin-4 receptor; assay: [I125]-NDP-α-MSH competition, hMC4-R HEK-293 membranes
Experimental: (§1) A competitive inhibition binding assay was performed for exemplified peptides according to the invention using membrane homogenates prepared from HEK-293 cells that express recombinant hMC4-R, hMC3-R, or hMC5-R, and from B-16 mouse melanoma cells (containing endogenous MC1-R). In some instances, HEK-293 cells that express recombinant hMC1-R were employed. Assays were performed in 96 well GF/B Millipore multiscreen filtration plates (MAFB NOB10) pre-coated with 0.5% bovine serum albumin (Fraction V). […] After incubation for 60 minutes at 37° C., the assay mixture was filtered and the membranes washed three times with ice-cold buffer. Filters were dried and counted in a gamma counter for bound radioactivity. […] Each assay was conducted in triplicate and the actual mean values are described, with results less than 0% reported as 0%. Ki values for test peptides of the present invention were determined using Graph-Pad Prism® curve-fitting software.

melanocortin-1 receptor = biological target: T2, melanocortin-1 receptor (mouse (B-16 melanoma cells); in some …, UniProt Q01727 1-315); assay: [I125]-NDP-α-MSH competition, MC1-R membranes
T2 construct: whole, on cells; membrane homogenates; also called MC1-R; mouse B16 MC1-R
T2 sequence (Q01727 whole entry): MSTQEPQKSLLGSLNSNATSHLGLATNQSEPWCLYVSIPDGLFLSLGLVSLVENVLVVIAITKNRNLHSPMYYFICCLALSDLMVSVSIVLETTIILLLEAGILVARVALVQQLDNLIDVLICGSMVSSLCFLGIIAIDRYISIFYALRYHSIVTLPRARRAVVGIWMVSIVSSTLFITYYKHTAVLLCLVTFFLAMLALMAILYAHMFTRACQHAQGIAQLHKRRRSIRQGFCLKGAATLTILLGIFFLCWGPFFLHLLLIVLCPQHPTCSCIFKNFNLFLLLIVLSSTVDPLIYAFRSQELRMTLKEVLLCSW
Experimental: as §1

| EC50, cAMP, 0.1 ng/mL Doxycycline [1] [nM] | EC50, cAMP, 10 ng/mL Doxycycline [1] [nM] | Intrinsic Activity, cAMP, 0.1 ng/mL Doxycycline [1] [%] | Intrinsic Activity, cAMP, 10 ng/mL Doxycycline [1] [%] | Ki [2] [nM] | Ki (melanocortin-1 receptor) [nM] | Binder |
| --- | --- | --- | --- | --- | --- | --- |
| 4 | 0.45 | 23 | 85 | 13 |  | XDQXRWK (N-terminal Ac; D-Arg 1; D-Phe(4-CN) 4; lactam Asp 2-Lys 7; C-terminal NH2, also called No. 81) [Ac-D-Arg-cyclo(Asp-Gln-D-Phe(4-CN)-Arg-Trp-Lys)-NH2] |
| 2 | 0.095 | 79 | 95 | 10 |  | XDQXRWK (N-terminal Ac; D-Arg 1; D-Phe(2-F) 4; lactam Asp 2-Lys 7; C-terminal NH2, also called No. 82) [Ac-D-Arg-cyclo(Asp-Gln-D-Phe(2-F)-Arg-Trp-Lys)-NH2] |
| 0.39 | 0.07 | 83 | 101 | 4 |  | Ac-R[Orn]Q[dPhe(2-Cl)]RWE-NH2 (lactam 2-7) [Ac-Arg-cyclo(Orn-Gln-D-Phe(2-Cl)-Arg-Trp-Glu)-NH2] |
| 3 | 0.15 | 35 | 94 | 7 |  | Ac-R[Orn]P[dPhe(2-F)]RWE-NH2 (lactam 2-7; SMILES CC(=O)N[C@@H](CCCNC(=N)N)C(=O)N[C@H]1CCCNC(=O)CC[C@@H](C(N)=O)NC(=O)[C@H](Cc2c[nH]c3ccccc23)NC(=O)[C@H](CCCNC(=N)N)NC(=O)[C@@H](Cc2ccccc2F)NC(=O)[C@@H]2CCCN2C1=O) [Ac-Arg-cyclo(Orn-Pro-D-Phe(2-F)-Arg-Trp-Glu)-NH2] |
| 0.24 | 0.09 | 32 | 92 | 0.9 |  | Ac-R[Orn]Q[dPhe(4-CN)]RWE-NH2 (lactam 2-7, also called No. 94) [Ac-Arg-cyclo(Orn-Gln-D-Phe(4-CN)-Arg-Trp-Glu)-NH2] |
| 2 | 0.2 | 48 | 89 | 8 |  | XDQXRWK (N-terminal Ac; D-Arg 1; D-Phe(3,4-diF) 4; lactam Asp 2-Lys 7; C-terminal NH2, also called No. 78) [Ac-D-Arg-cyclo(Asp-Gln-D-Phe(3,4-diF)-Arg-Trp-Lys)-NH2] |
| 0.75 | 0.075 | 78 | 94 | 6 |  | XDQXRWK (N-terminal Ac; D-Arg 1; D-Phe(4-F) 4; lactam Asp 2-Lys 7; C-terminal NH2, also called No. 83) [Ac-D-Arg-cyclo(Asp-Gln-D-Phe(4-F)-Arg-Trp-Lys)-NH2] |
| 1 | 0.265 | 18 | 96 | 4 |  | Ac-R[Orn]N[dPhe(4-CN)]RWE-NH2 (lactam 2-7, also called No. 91) [Ac-Arg-cyclo(Orn-Asn-D-Phe(4-CN)-Arg-Trp-Glu)-NH2] |

The remaining lines, values behind:

| Binder | EC50, cAMP, 0.1 ng/mL Doxycycline [1] [nM] | EC50, cAMP, 10 ng/mL Doxycycline [1] [nM] | Intrinsic Activity, cAMP, 0.1 ng/mL Doxycycline [1] [%] | Intrinsic Activity, cAMP, 10 ng/mL Doxycycline [1] [%] | Ki [2] [nM] | Ki (melanocortin-1 receptor) [nM] |
| --- | --- | --- | --- | --- | --- | --- |
| Ac-REQ[dPhe(4-F)]RW[Orn]-NH2 (lactam 2-7, also called No. 92) [Ac-Arg-cyclo(Glu-Gln-D-Phe(4-F)-Arg-Trp-Orn)-NH2] | 0.1 | 0.04 | 81 | 89 | 2 |  |
| RDPXRWK (N-terminal Ac; D-Phe(4-F) 4; lactam Asp 2-Lys 7; C-terminal NH2, also called No. 103) [Ac-Arg-cyclo(Asp-Pro-D-Phe(4-F)-Arg-Trp-Lys)-NH2] | 1 | 0.13 | 32 | 100 | 4 |  |
| Ac-RDN[dPhe(4-CN)]RWK-NH2 (lactam 2-7, also called No. 89) [Ac-Arg-cyclo(Asp-Asn-D-Phe(4-CN)-Arg-Trp-Lys)-NH2] |  | 17 | 6 | 87 | 48 |  |
| RDQXRWK (N-terminal Ac; D-Phe(4-CN) 4; lactam Asp 2-Lys 7; C-terminal NH2, also called No. 90) [Ac-Arg-cyclo(Asp-Gln-D-Phe(4-CN)-Arg-Trp-Lys)-NH2] | 4 | 0.283 | 31 | 96 | 5 |  |
| Ac-REQ[dPhe(2-F)]RW[Orn]-NH2 (lactam 2-7, also called No. 59) [Ac-Arg-cyclo(Glu-Gln-D-Phe(2-F)-Arg-Trp-Orn)-NH2] | 0.6 | 0.1 | 90 | 98 | 7 |  |
| Ac-R[Orn]N[dPhe(4-F)]RWE-NH2 (lactam 2-7, also called No. 70) [Ac-Arg-cyclo(Orn-Asn-D-Phe(4-F)-Arg-Trp-Glu)-NH2] | 0.4 | 0.1 | 64 |  | 3 |  |
| Ac-R[Orn]N[dPhe(2-Cl)]RWE-NH2 (lactam 2-7) [Ac-Arg-cyclo(Orn-Asn-D-Phe(2-Cl)-Arg-Trp-Glu)-NH2] | 0.72 | 0.065 |  | 100 | 7 |  |
| Ac-R[Orn]N[dPhe(2-CF3)]RWE-NH2 (lactam 2-7) [Ac-Arg-cyclo(Orn-Asn-D-Phe(2-CF3)-Arg-Trp-Glu)-NH2] | 1 | 0.18 | 50 | 112 | 5 |  |
| Ac-R[Orn]N[dPhe(3,4-F2)]RWE-NH2 (lactam 2-7, also called No. 75) [Ac-Arg-cyclo(Orn-Asn-D-Phe(3,4-diF)-Arg-Trp-Glu)-NH2] | 0.65 | 0.125 | 43 |  | 3 |  |
| Ac-R[Orn]N[dPhe(3-Me)]RWE-NH2 (lactam 2-7, also called No. 72) [Ac-Arg-cyclo(Orn-Asn-D-Phe(3-Me)-Arg-Trp-Glu)-NH2] | 3 | 0.35 | 11 |  | 4 |  |
| Ac-RKQ[dPhe(4-CN)]RWD-NH2 (lactam 2-7; SMILES CC(=O)N[C@@H](CCCNC(=N)N)C(=O)N[C@H]1CCCCNC(=O)C[C@@H](C(N)=O)NC(=O)[C@H](Cc2c[nH]c3ccccc23)NC(=O)[C@H](CCCNC(=N)N)NC(=O)[C@@H](Cc2ccc(C#N)cc2)NC(=O)[C@H](CCC(N)=O)NC1=O, also called No. 93) [Ac-Arg-cyclo(Lys-Gln-D-Phe(4-CN)-Arg-Trp-Asp)-NH2] | 0.3 | 0.17 | 44 | 97 | 1 |  |
| Ac-R[Orn]N[dPhe(3,5-F2)]RWE-NH2 (lactam 2-7, also called No. 77) [Ac-Arg-cyclo(Orn-Asn-D-Phe(3,5-diF)-Arg-Trp-Glu)-NH2] | 3 | 0.155 | 34 | 80 | 8 |  |
| Ac-REQ[dPhe(2-Me)]RW[Orn]-NH2 (lactam 2-7, also called No. 110) [Ac-Arg-cyclo(Glu-Gln-D-Phe(2-Me)-Arg-Trp-Orn)-NH2] | 0.6 | 0.06 | 84 | 105 |  | 105 |
| RDPXRWK (N-terminal Ac; D-Phe(2-F) 4; lactam Asp 2-Lys 7; C-terminal NH2) [Ac-Arg-cyclo(Asp-Pro-D-Phe(2-F)-Arg-Trp-Lys)-NH2] | 191 | 10 | 16 | 100 | 78 |  |
| Ac-REQ[dPhe(2-Cl)]RW[Orn]-NH2 (lactam 2-7, also called No. 34) [Ac-Arg-cyclo(Glu-Gln-D-Phe(2-Cl)-Arg-Trp-Orn)-NH2] | 1 | 0.137 | 79 | 97 | 7 | 128 |
| Ac-REN[dPhe(2-Cl)]RW[Orn]-NH2 (lactam 2-7; SMILES CC(=O)N[C@@H](CCCNC(=N)N)C(=O)N[C@H]1CCC(=O)NCCC[C@@H](C(N)=O)NC(=O)[C@H](Cc2c[nH]c3ccccc23)NC(=O)[C@H](CCCNC(=N)N)NC(=O)[C@@H](Cc2ccccc2Cl)NC(=O)[C@H](CC(N)=O)NC1=O, also called No. 84) [Ac-Arg-cyclo(Glu-Asn-D-Phe(2-Cl)-Arg-Trp-Orn)-NH2] | 0.633 | 0.09 | 78 | 97 | 7 | 245 |
| Ac-RES[dPhe(2-F)]RW[Orn]-NH2 (lactam 2-7, also called No. 58) [Ac-Arg-cyclo(Glu-Ser-D-Phe(2-F)-Arg-Trp-Orn)-NH2] | 5 | 0.25 | 67 | 100 |  | 138 |
| Ac-REA[dPhe(4-CN)]RW[Orn]-NH2 (lactam 2-7; SMILES CC(=O)N[C@@H](CCCNC(=N)N)C(=O)N[C@H]1CCC(=O)NCCC[C@@H](C(N)=O)NC(=O)[C@H](Cc2c[nH]c3ccccc23)NC(=O)[C@H](CCCNC(=N)N)NC(=O)[C@@H](Cc2ccc(C#N)cc2)NC(=O)[C@H](C)NC1=O, also called No. 41) [Ac-Arg-cyclo(Glu-Ala-D-Phe(4-CN)-Arg-Trp-Orn)-NH2] |  | 0.8 | 5 | 84 | 3 | 4300 |
